Results as given in PMC4266533, “Kinetics of the early events of GPCR signalling” (Febs Letters, 2014).

Key:
[1] = molecular target: T1, FLAG-NTS1 (neurotensin receptor type 1) reconstituted into PC:PG nanodiscs, neurotensin-bound (UniProt P20789 1-424); assay: SPR; Gα amine-coupled to a CM5 chip (Biacore T100/T200); NT-bound (5 uM NT) anti-FLAG-enriched FLAG-NTS1-PC:PG nanodiscs as analyte, serially diluted from 660 nM or 400 nM; single cycle kinetics at 30-50 ul/min; empty nanodiscs as reference, double-referenced; 50 mM Tris-HCl pH 7.4, 100 mM NaCl, 5 mM MgCl2; heterogeneous ligand binding global fit; settings: both partners purified
T1 construct: Neurotensin (NT), 13 amino acid peptide, agonist kept in excess (5 uM) with the receptor; The receptor stood in ~10 nm lipid nanodiscs with the belt protein MSP1D1 (Addgene plasmid 20061, made in E. coli BL21(DE3)); MSP1D1 is not written as a chain; Primarily one receptor per disc (50:1 MSP1D1:FLAG-NTS1); also called FLAG-NTS1-PC:PG nanodiscs; NTS1-nanodiscs

[2] = molecular target: T1, FLAG-NTS1 (neurotensin receptor type 1) …; assay: SPR; FLAG-NTS1-PC:PG nanodiscs (2500 RU) captured on an L1 chip, empty PC:PG nanodiscs (2000 RU) in the reference cell; His6-Gs as analyte, 62.5-1000 nM, 150 s per concentration at 50 ul/min; 1:1 Langmuir and heterogeneous ligand binding fits; settings: both partners purified

T1 sequence (P20789 whole entry): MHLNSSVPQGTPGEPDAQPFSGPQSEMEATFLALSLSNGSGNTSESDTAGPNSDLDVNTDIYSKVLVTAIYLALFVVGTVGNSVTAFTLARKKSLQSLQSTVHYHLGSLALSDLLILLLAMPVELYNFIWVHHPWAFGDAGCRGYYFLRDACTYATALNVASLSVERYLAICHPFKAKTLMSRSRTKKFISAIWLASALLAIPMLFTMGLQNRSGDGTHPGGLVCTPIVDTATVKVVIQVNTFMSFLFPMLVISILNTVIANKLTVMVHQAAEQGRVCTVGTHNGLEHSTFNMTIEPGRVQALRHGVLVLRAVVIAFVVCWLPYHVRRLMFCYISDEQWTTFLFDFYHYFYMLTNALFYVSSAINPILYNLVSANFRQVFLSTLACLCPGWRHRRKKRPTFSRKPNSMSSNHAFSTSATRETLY

B1: His6-Gαs (alpha subunit of the stimulatory G protein Gs) (natural protein, UniProt P63092 1-394, looked up)
chain: MGCLGNSKTEDQRNEEKAQREANKKIEKQLQKDKQVYRATHRLLLLGAGESGKSTIVKQMRILHVNGFNGEGGEEDPQAARSNSDGEKATKVQDIKNNLKEAIETIVAAMSNLVPPVELANPENQFRVDYILSVMNVPDFDFPPEFYEHAKALWEDEGVRACYERSNEYQLIDCAQYFLDKIDVIKQADYVPSDQDLLRCRVLTSGIFETKFQVDKVNFHMFDVGGQRDERRKWIQCFNDVTAIIFVVASSSYNMVIREDNQTNRLQEALNLFKSIWNNRWLRTISVILFLNKQDLLAEKVLAGKSKIEDYFPEFARYTTPEDATPEPGEDPRVTRAKYFIRDEFLRISTASGDGRHYCYPHFTCAVDTENIRRVFNDCRDIIQRMHLRQYELL
notes: Alpha subunit of Gs; construct donated by Renaud Wagner (University of Strasbourg); Also tested with GTPγS (same protein, assay a2); also called His6-Gs; His-Gαs
Which results are given for B1?
Kd [1]: 9 nM; Kd [2]: 65 nM
